Experimental findings from the Human Domainome abundance scans (Beltran et al. 2025) are described below.

The chains are these.
B1: Advillin, residues 785 to 819; numbered along this chain, O75366 (parent)
chain: LSEQDFVSVFGITRGQFAALPGWKQLQMKKEKGLF

± gives the uncertainty stated by the source.

The data set covers variants of B1. The data set is described as follows: abundance fitness (aPCA) (normalised: wild type 0, dead -1); higher = more abundant; growth selection in yeast, the domain comes from the species named. The conditions noted are these: Homo sapiens.
On to LSEQDFVSVFGITRGHFAALPGWKQLQMKKEKGLF, for which the abundance fitness was -0.183 ± 0.15.
LSEQDFVSVFGITRGWFAALPGWKQLQMKKEKGLF: the abundance fitness was -0.626 ± 0.1.
Consider LSEQDFVSVFGITRGCFAALPGWKQLQMKKEKGLF, for which the abundance fitness is -0.43 ± 0.097.
Consider LSEQDFVSVFGITRGLFAALPGWKQLQMKKEKGLF, for which the abundance fitness was -0.382 ± 0.073.
On to LSEQDFVSVFGITRGEFAALPGWKQLQMKKEKGLF, for which the abundance fitness is -0.053 ± 0.077.
With LSEQDFVSVFGITRGRFAALPGWKQLQMKKEKGLF, the abundance fitness was -0.281 ± 0.056.
As for LSEQDFVSVFGITRGFFAALPGWKQLQMKKEKGLF, the abundance fitness was -0.302 ± 0.13.
For LSEQDFVSVFGITRGDFAALPGWKQLQMKKEKGLF, the abundance fitness was -0.347 ± 0.2.
With LSEQDFVSVFGITRGMFAALPGWKQLQMKKEKGLF, the abundance fitness is -0.279 ± 0.12.
LSEQDFVSVFGITRGGFAALPGWKQLQMKKEKGLF: the abundance fitness was -0.378 ± 0.069.
In the case of LSEQDFVSVFGITRGPFAALPGWKQLQMKKEKGLF, the abundance fitness was -0.355 ± 0.29.
As for LSEQDFVSVFGITRGTFAALPGWKQLQMKKEKGLF, the abundance fitness is -0.192 ± 0.077.
Next, LSEQDFVSVFGITRGSFAALPGWKQLQMKKEKGLF: -0.211 ± 0.067; LSEQDFVSVFGITRGYFAALPGWKQLQMKKEKGLF: -0.252 ± 0.17.
Consider LSEQDFVSVFGITRGVFAALPGWKQLQMKKEKGLF, for which the abundance fitness was -0.422 ± 0.12.
For LSEQDFVSVFGITRGIFAALPGWKQLQMKKEKGLF, the abundance fitness is -0.396 ± 0.41.
On to LSEQDFVSVFGITREQFAALPGWKQLQMKKEKGLF, for which the abundance fitness stood at 0.238 ± 0.064.
As for LSEQDFVSVFGITRAQFAALPGWKQLQMKKEKGLF, the figure is 0.16 ± 0.052.
LSEQDFVSVFGITRNQFAALPGWKQLQMKKEKGLF: the abundance fitness was -0.05 ± 0.11.
As for LSEQDFVSVFGITRPQFAALPGWKQLQMKKEKGLF, the figure is -0.413 ± 0.1; as for LSEQDFVSVFGITRLQFAALPGWKQLQMKKEKGLF, -0.215 ± 0.069.
Turning to LSEQDFVSVFGITRKQFAALPGWKQLQMKKEKGLF, the abundance fitness came to 0.15 ± 0.065.
For LSEQDFVSVFGITRSQFAALPGWKQLQMKKEKGLF, the abundance fitness was found to be 0.203 ± 0.071.
LSEQDFVSVFGITRQQFAALPGWKQLQMKKEKGLF: the abundance fitness turned out to be 0.11 ± 0.083.
As to LSEQDFVSVFGITRHQFAALPGWKQLQMKKEKGLF, the abundance fitness came to 0.008 ± 0.11.
Next, LSEQDFVSVFGITRTQFAALPGWKQLQMKKEKGLF: -0.052 ± 0.063; LSEQDFVSVFGITRCQFAALPGWKQLQMKKEKGLF: -0.152 ± 0.1; LSEQDFVSVFGITRIQFAALPGWKQLQMKKEKGLF: 0.042 ± 0.076.
For LSEQDFVSVFGITRRQFAALPGWKQLQMKKEKGLF, the abundance fitness is -0.089 ± 0.048.
In the case of LSEQDFVSVFGITRWQFAALPGWKQLQMKKEKGLF, the abundance fitness was -0.395 ± 0.07.
Regarding LSEQDFVSVFGITRFQFAALPGWKQLQMKKEKGLF, the abundance fitness was -0.193 ± 0.083.
As for LSEQDFVSVFGITRVQFAALPGWKQLQMKKEKGLF, the abundance fitness was -0.077 ± 0.061.
On to LSEQDFVSVFGITRDQFAALPGWKQLQMKKEKGLF, for which the abundance fitness is 0.009 ± 0.093.
For the variant LSEQDFVSVFGITVGQFAALPGWKQLQMKKEKGLF, the abundance fitness was -0.264 ± 0.079.
As for LSEQDFVSVFGITWGQFAALPGWKQLQMKKEKGLF, the abundance fitness was -0.349 ± 0.066.
As for LSEQDFVSVFGITKGQFAALPGWKQLQMKKEKGLF, the abundance fitness came out at 0.145 ± 0.12.
LSEQDFVSVFGITQGQFAALPGWKQLQMKKEKGLF: the abundance fitness was -0.037 ± 0.074.
LSEQDFVSVFGITLGQFAALPGWKQLQMKKEKGLF: the abundance fitness is -0.322 ± 0.079.
LSEQDFVSVFGITDGQFAALPGWKQLQMKKEKGLF: the abundance fitness was -0.431 ± 0.071.
Regarding LSEQDFVSVFGITNGQFAALPGWKQLQMKKEKGLF, the abundance fitness is -0.611 ± 0.11.
For LSEQDFVSVFGITIGQFAALPGWKQLQMKKEKGLF, the abundance fitness is -0.252 ± 0.11.
On to LSEQDFVSVFGITFGQFAALPGWKQLQMKKEKGLF, for which the abundance fitness is -0.117 ± 0.13.
Consider LSEQDFVSVFGITMGQFAALPGWKQLQMKKEKGLF, for which the abundance fitness is -0.024 ± 0.078.
With LSEQDFVSVFGITAGQFAALPGWKQLQMKKEKGLF, the abundance fitness was -0.121 ± 0.06.
Next, LSEQDFVSVFGITCGQFAALPGWKQLQMKKEKGLF: -0.095 ± 0.11.
On to LSEQDFVSVFGITSGQFAALPGWKQLQMKKEKGLF, for which the abundance fitness was -0.169 ± 0.058.
Turning to LSEQDFVSVFGITEGQFAALPGWKQLQMKKEKGLF, the abundance fitness is -0.024 ± 0.082.
Regarding LSEQDFVSVFGITPGQFAALPGWKQLQMKKEKGLF, the abundance fitness was -0.116 ± 0.11.
Consider LSEQDFVSVFGITHGQFAALPGWKQLQMKKEKGLF, for which the abundance fitness was -0.262 ± 0.078.
Turning to LSEQDFVSVFGITTGQFAALPGWKQLQMKKEKGLF, the abundance fitness was -0.205 ± 0.061.
Regarding LSEQDFVSVFGITGGQFAALPGWKQLQMKKEKGLF, the abundance fitness was -0.317 ± 0.063.
As for LSEQDFVSVFGIARGQFAALPGWKQLQMKKEKGLF, the abundance fitness was -0.397 ± 0.058.
In the case of LSEQDFVSVFGIKRGQFAALPGWKQLQMKKEKGLF, the abundance fitness was -0.314 ± 0.086.
As for LSEQDFVSVFGIGRGQFAALPGWKQLQMKKEKGLF, the figure is -0.382 ± 0.055; as for LSEQDFVSVFGIDRGQFAALPGWKQLQMKKEKGLF, -0.265 ± 0.062; as for LSEQDFVSVFGISRGQFAALPGWKQLQMKKEKGLF, -0.199 ± 0.08.
LSEQDFVSVFGIIRGQFAALPGWKQLQMKKEKGLF: the abundance fitness is -0.475 ± 0.32.
For LSEQDFVSVFGIQRGQFAALPGWKQLQMKKEKGLF, the abundance fitness is -0.871 ± 0.13.
As for LSEQDFVSVFGINRGQFAALPGWKQLQMKKEKGLF, the abundance fitness was -0.26 ± 0.084.
Take LSEQDFVSVFGIFRGQFAALPGWKQLQMKKEKGLF: the abundance fitness is -0.368 ± 0.2.
For LSEQDFVSVFGICRGQFAALPGWKQLQMKKEKGLF, the abundance fitness is -0.255 ± 0.12.
As for LSEQDFVSVFGILRGQFAALPGWKQLQMKKEKGLF, the abundance fitness was -0.619 ± 0.14.
LSEQDFVSVFGIMRGQFAALPGWKQLQMKKEKGLF: the abundance fitness was -0.369 ± 0.14.
Consider LSEQDFVSVFGIERGQFAALPGWKQLQMKKEKGLF, for which the abundance fitness is -0.101 ± 0.08.
As for LSEQDFVSVFGIVRGQFAALPGWKQLQMKKEKGLF, the abundance fitness is -0.53 ± 0.08.
LSEQDFVSVFGIPRGQFAALPGWKQLQMKKEKGLF: the abundance fitness is -0.219 ± 0.11.
For LSEQDFVSVFGIYRGQFAALPGWKQLQMKKEKGLF, the abundance fitness was -0.017 ± 0.26.
As to LSEQDFVSVFGWTRGQFAALPGWKQLQMKKEKGLF, the abundance fitness is -0.999 ± 0.11.
In the case of LSEQDFVSVFGQTRGQFAALPGWKQLQMKKEKGLF, the abundance fitness was -0.897 ± 0.15.
Turning to LSEQDFVSVFGPTRGQFAALPGWKQLQMKKEKGLF, the abundance fitness is -0.713 ± 0.092.
